Assays:
IL5 (human) [1] = biological target: IL5 (human) (UniProt P05113); assay: cell-based or functional assay
IL5 (human) [2] = biological target: IL5 (human) (UniProt P05113); assay: Flow cytometry, blocking of IL5-biotin binding to HEK293F cells expressing IL5R
IL5 (human) [3] = biological target: IL5 (human) (UniProt P05113); assay: flow cytometry blocking IL5/IL5R
IL5 (human) [4] = biological target: IL5 (human) (UniProt P05113); assay: ELISA
IL5 (human) [5] = biological target: IL5 (human) (UniProt P05113); assay: flow cytometry blocking IL5/IL5R; remark: listed apart in the source

IC50 of inhibition of the proliferation of TF-1 cells induced by IL5 (CCK8, OD450) (IL5 (human) [1]) [nM]	IC50 (IL5 (human) [2]) [µg/mL]	Substance	IC50 (IL5 (human) [3]) [µg/mL]	EC50 (IL5 (human) [4]) [µg/mL]	IC50 (IL5 (human) [5]) [µg/mL]
0.178	2.04	Nucala (antibody)	–	–	–
–	–	Control Ab Nucala	2.96	0.0563	2.36

Reference: patent US20230399395A1
